Measurements from the supplement of paper PMC10567573.

B1: TRIM39 (parent)
chain: ERDFPCPVCRKTSRYRSLRPNRQL

Variants of: B1
Assay: protein stability index of a GFP-peptide fusion (GPS, HEK-293T) (PSI 1-6); higher = more stable
Settings: c terminus: a fixed tail appended
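Note: lentivirally expressed fusions sorted by FACS into six bins by GFP to DsRed ratio, PSI derived from sequencing read proportions per bin multiplied by bin number.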

Row | Variant | protein stability index
1 | ERDFPCPVCRKTSRYGSLRPNRQL | 1.29
2 | ERDFPCPVCRKTSRYSSLRPNRQL | 2.86
3 | ERDFPCPVCRKTSRYPSLRPNRQL | 2.1
4 | ERDFPCPVCRKTSRYYSLRPNRQL | 1.74
5 | ERDFPCPVCRKTSRYFSLRPNRQL | 2.57
6 | ERDFPCPVCRKTSRYASLRPNRQL | 1.43
7 | ERDFPCPVCRKTSRYMSLRPNRQL | 1.03
8 | ERDFPCPVCRKTSRYKSLRPNRQL | 2.14
9 | ERDFPCDVCRKTSRYRSLRPNRQL | 2.43
10 | ERDFPCHVCRKTSRYRSLRPNRQL | 3.7
11 | ERDFPCGVCRKTSRYRSLRPNRQL | 2.38
12 | ERDFPCMVCRKTSRYRSLRPNRQL | 2.17
13 | ERDFPCQVCRKTSRYRSLRPNRQL | 1.96
14 | ERDFPCTVCRKTSRYRSLRPNRQL | 1.85
15 | ERDFPCSVCRKTSRYRSLRPNRQL | 2.22
16 | ERDFPCLVCRKTSRYRSLRPNRQL | 2.37
17 | ERDFPCCVCRKTSRYRSLRPNRQL | 1.94
18 | ERDFPCIVCRKTSRYRSLRPNRQL | 2.75
19 | ERDIPCPVCRKTSRYRSLRPNRQL | 2.35
20 | ERDGPCPVCRKTSRYRSLRPNRQL | 2.3
21 | ERDEPCPVCRKTSRYRSLRPNRQL | 2.02
22 | ERDMPCPVCRKTSRYRSLRPNRQL | 2.48
23 | ERDFPCPVCRKTERYRSLRPNRQL | 2.21
24 | ERDFPCPVCRKTARYRSLRPNRQL | 2.01

Row | Variant | protein stability index
25 | ERDFPCPVCRKTPRYRSLRPNRQL | 2.74
26 | ERDFPCPVCRKTIRYRSLRPNRQL | 2.4
27 | ERDFPCPVCRKTWRYRSLRPNRQL | 2.39
28 | ERDFPCPVCRKTQRYRSLRPNRQL | 2.1
29 | ERDFPCPVCRKTSRYRSVRPNRQL | 2.49
30 | ERDFPCPVCRKTSRYRSTRPNRQL | 3.13
31 | ERDFPCPVCRKTSRYRSWRPNRQL | 2.26
32 | ERDFPCPVCRKTSRYRSHRPNRQL | 2.68
33 | ERDFPCPVCRKTSRYRSARPNRQL | 2.32
34 | ERDFPCPVCRKTSRYRSPRPNRQL | 2.89
35 | ERDFPCPVCRKTSRYRSMRPNRQL | 1.82
36 | ERDFPCPVCRKTSRYRSERPNRQL | 2.1
37 | ERDFPCPVCRKTSRYRSIRPNRQL | 1.81
38 | ERDFPCPVCRKTSRYRSDRPNRQL | 2.71
39 | ERDFPCPVCRKTSKYRSLRPNRQL | 1.9
40 | ERDFPCPVCRKTSVYRSLRPNRQL | 1.39
41 | ERDFPCPVCRKTSGYRSLRPNRQL | 2.13
42 | ERDFPCPVCRKTSLYRSLRPNRQL | 2.09
43 | ERDFPCPVCRKTSDYRSLRPNRQL | 2.08
44 | ERDFPCPVCRKTSNYRSLRPNRQL | 1.67
45 | ERDFPCPQCRKTSRYRSLRPNRQL | 2.35
46 | ERDFPCPNCRKTSRYRSLRPNRQL | 2.43
47 | ERDFPCPRCRKTSRYRSLRPNRQL | 3.23
48 | ERDFPCPPCRKTSRYRSLRPNRQL | 3.91

Row | Variant | protein stability index
49 | ERDFPCPMCRKTSRYRSLRPNRQL | 2.31
50 | ERDFPCPVCRKTSRYRSLRPNRQP | 3.2
51 | ERDFPCPVCRKTSRYRSLRPNRQS | 3.32
52 | ERDFPCPVCRKTSRYRSLRPNRQH | 2.82
53 | ERDFPCPVCRKTSRYRSLRPNRQA | 1.81
54 | ERDFPCPVCRKTSRYRSLRPNRQV | 2.19
55 | ERDFPCPVCRKTSRYRSLRPNRQN | 2.41
56 | ERDFPCPVCRKTSRYRSLRPNRQI | 1.85
57 | ERDFPCPVCRKTSRYRSLRPNRQW | 1.36
58 | ERDFPCPVCRKTSRYRSLRPNRQF | 2.04
59 | ERDFPCPVCRKTSRYRRLRPNRQL | 2.31
60 | ERDFPCPVCRKTSRYRWLRPNRQL | 2.31
61 | ERDFPCPVCRKTSRYRGLRPNRQL | 2.15
62 | ERDFPCPVCRKTSRYRCLRPNRQL | 1.71
63 | ERDFPCPVCRKTSRYRYLRPNRQL | 1.44
64 | ERDFPCPVCRKTSRYRPLRPNRQL | 2.71
65 | ERDFPCPVCRKTSRYRHLRPNRQL | 1.89
66 | ERDFPCPVCRKTSRYRVLRPNRQL | 2.24
67 | ERDFPCPVCRKTSRYRTLRPNRQL | 1.45
68 | ERDFMCPVCRKTSRYRSLRPNRQL | 2.26
69 | ERDFFCPVCRKTSRYRSLRPNRQL | 1.81
70 | ERDFKCPVCRKTSRYRSLRPNRQL | 2.72
71 | ERDFWCPVCRKTSRYRSLRPNRQL | 1.87
72 | ERDFTCPVCRKTSRYRSLRPNRQL | 2.93

Row | Variant | protein stability index
73 | ERDFQCPVCRKTSRYRSLRPNRQL | 1.18
74 | ERDFGCPVCRKTSRYRSLRPNRQL | 1.67
75 | ERDFECPVCRKTSRYRSLRPNRQL | 1.76
76 | ERDFCCPVCRKTSRYRSLRPNRQL | 2.9
77 | ERDFYCPVCRKTSRYRSLRPNRQL | 2
78 | ERDFHCPVCRKTSRYRSLRPNRQL | 3.7
79 | ERDFPQPVCRKTSRYRSLRPNRQL | 3.24
80 | ERDFPLPVCRKTSRYRSLRPNRQL | 3.19
81 | ERDFPSPVCRKTSRYRSLRPNRQL | 3.17
82 | ERDFPFPVCRKTSRYRSLRPNRQL | 2.03
83 | ERDFPWPVCRKTSRYRSLRPNRQL | 2.01
84 | ERDFPIPVCRKTSRYRSLRPNRQL | 3.24
85 | ERDFPHPVCRKTSRYRSLRPNRQL | 3.61
86 | ERDFPYPVCRKTSRYRSLRPNRQL | 3.21
87 | ERDFPVPVCRKTSRYRSLRPNRQL | 3.23
88 | ERDFPTPVCRKTSRYRSLRPNRQL | 3.02
89 | ERDFPDPVCRKTSRYRSLRPNRQL | 3.74
90 | ERDFPCPVCRKTSRYRSLRPERQL | 1.71
91 | ERDFPCPVCRKTSRYRSLRPSRQL | 1.91
92 | ERDFPCPVCRKTSRYRSLRPFRQL | 2.6
93 | ERDFPCPVCRKTSRYRSLRPYRQL | 2.52
94 | ERDFPCPVCRKTSRYRSLRPVRQL | 1.9
